These results are taken from patent publication US20200148768A1 (STCUBE, published 2020).

A word on the Kd: it is a measure of binding affinity in units of concentration. A high value points to a looser complex. As usually defined, the koff is the first-order rate constant of dissociation. A low value points to a long-lived complex. What is called kon is the rate constant with which the complex forms. A high value points to faster complex formation.

For this assay, the target named is T1, mouse BTN1A1-ECD-Fc (mouse; human, UniProt Q62556 27-247).
T1 construct: also called human IgG1-Fc-tagged mouse BTN1A1-ECD (dimer); mBTN1A1-Fc
T1 chain: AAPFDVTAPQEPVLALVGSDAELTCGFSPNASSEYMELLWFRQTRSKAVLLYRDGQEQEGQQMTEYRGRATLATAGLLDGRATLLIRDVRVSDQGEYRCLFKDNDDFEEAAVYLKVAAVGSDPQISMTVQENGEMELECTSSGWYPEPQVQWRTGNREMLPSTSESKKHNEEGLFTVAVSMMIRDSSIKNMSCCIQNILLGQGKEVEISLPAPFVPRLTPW
In words: SPR (Biacore X-100), antibody captured on chip, mouse BTN1A1-ECD-Fc 2-64 nM. The procedure: The binding affinity between BTN1A1 and monoclonal anti-BTN1A1 antibodies STC1011, STC1012, and STC1029 was measured by Surface Plasmon Resonance (BIAcore™). Sensorgrams and saturation curves of antibody titrations of with human IgG1-Fc-tagged mouse BTN1A1-ECD (dimer) were recorded.
An Protein capture chip (BIAcore™) was coated with STC1011, STC1012, STC1029, or a control IgG1 antibody. No interaction between the IgG1 control and mouse BTN1A1-His was observed. Mouse BTN1A1-ECD-Fc was injected into the microfluidic channel on a Biacore™ X-100 instrument. KD values were obtained using fitting tools of the BIAevaluation software (BIAcore). FIGS. 29A-C provide sensograms showing real-time binding of dimeric BTN1A1-ECD-Fc (2-64 nM with 2-fold dilution) to immobilized STC1011, STC1012, and STC1029.
Background: SPR reads the build-up and loss of mass on a sensor chip optically.

B1: STC1029 (antibody, V domains shown)
VH: EVQLQQSGPELVKPGASVKISCKASGYSFTGYFMNWVKQSHGKSLEWIGRINPYNGDTFYNQKFKDKATLTVDTSSSTAHMELRSLTSEESAVYYCARWTTVINFDYWGQGTTLTVSS
VL: SIVMTQTPKFLLVSAGDRVTITCKASQSVSYDVVWYQQKPGQSPKLLMYYVSNRYTGVPDRFTGSGYGTDFTFTISTVQAEDLAVYFCQQDYSSPPTFGGGTKLEIK
notes: kappa; also called mouse monoclonal anti-mouse BTN1A1 Antibody STC1029
The molecule B1 registered a Kd of 1.69 nM, a koff of 0.000427 s⁻¹ and a kon of 251000 M⁻¹ s⁻¹.

B2: STC1012 (antibody, V domains shown)
VH: EVMLVESGGALVKPGGSLKLSCAASGFTFSNYVMSWVRQTPEKRLEWVATISSGGSYTNYPDSVKGRFIISRDNARNTLYLQMSSLRSEDTAIYYCVREGDGFYVFDYWGLGTTLTVSS
VL: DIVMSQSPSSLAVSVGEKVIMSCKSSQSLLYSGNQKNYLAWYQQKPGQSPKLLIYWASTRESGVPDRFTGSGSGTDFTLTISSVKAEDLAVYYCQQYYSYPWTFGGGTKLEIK
notes: kappa; pHrodo-labeled in the internalization assay; also called mouse monoclonal anti-mouse BTN1A1 antibody STC1012
Consider B2, for which the affinity, expressed as Kd, was 4.1 nM; the koff is 0.000599 s⁻¹; the kon came to 146000 M⁻¹ s⁻¹.
